The numbers were not newly measured in PMC4843017, which cites them from elsewhere.

The target in this series is Ndc80 complex (Homo sapiens) (UniProt O14777). The experiment in a line: isothermal titration calorimetry.
Sequence of Ndc80 complex (Homo sapiens) (O14777 whole entry, chain 1 of 4): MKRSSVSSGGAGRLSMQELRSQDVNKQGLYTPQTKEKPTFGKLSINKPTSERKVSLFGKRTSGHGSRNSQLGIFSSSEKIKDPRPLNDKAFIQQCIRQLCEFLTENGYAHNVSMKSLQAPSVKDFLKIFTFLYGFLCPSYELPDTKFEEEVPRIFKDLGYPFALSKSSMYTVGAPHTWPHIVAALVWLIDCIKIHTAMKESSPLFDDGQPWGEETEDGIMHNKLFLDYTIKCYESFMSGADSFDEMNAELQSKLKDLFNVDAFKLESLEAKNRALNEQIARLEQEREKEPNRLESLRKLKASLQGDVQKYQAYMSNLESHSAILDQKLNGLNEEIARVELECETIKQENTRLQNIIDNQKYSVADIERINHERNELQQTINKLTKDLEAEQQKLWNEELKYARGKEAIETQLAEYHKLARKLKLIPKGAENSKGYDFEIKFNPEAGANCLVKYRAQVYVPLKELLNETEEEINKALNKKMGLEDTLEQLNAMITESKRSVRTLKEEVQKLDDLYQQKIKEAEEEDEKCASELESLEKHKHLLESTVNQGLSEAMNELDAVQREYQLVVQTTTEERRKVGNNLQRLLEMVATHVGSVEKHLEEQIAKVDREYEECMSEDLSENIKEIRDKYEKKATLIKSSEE
Sequence of Ndc80 complex (Homo sapiens) (Q9BZD4 whole entry, chain 2 of 4, further chain): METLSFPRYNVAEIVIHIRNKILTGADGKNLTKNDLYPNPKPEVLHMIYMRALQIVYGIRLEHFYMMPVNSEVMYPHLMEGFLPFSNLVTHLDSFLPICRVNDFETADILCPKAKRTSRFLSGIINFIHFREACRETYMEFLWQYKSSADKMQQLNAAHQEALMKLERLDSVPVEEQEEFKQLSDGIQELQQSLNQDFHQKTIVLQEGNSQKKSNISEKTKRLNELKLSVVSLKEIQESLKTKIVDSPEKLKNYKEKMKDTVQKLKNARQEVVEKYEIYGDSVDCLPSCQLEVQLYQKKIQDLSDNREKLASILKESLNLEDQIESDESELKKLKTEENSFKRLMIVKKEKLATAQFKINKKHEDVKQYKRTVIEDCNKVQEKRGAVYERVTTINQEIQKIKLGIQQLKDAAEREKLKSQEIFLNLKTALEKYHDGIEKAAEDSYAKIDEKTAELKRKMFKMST
Sequence of Ndc80 complex (Homo sapiens) (Q8NBT2 whole entry, chain 3 of 4, further chain): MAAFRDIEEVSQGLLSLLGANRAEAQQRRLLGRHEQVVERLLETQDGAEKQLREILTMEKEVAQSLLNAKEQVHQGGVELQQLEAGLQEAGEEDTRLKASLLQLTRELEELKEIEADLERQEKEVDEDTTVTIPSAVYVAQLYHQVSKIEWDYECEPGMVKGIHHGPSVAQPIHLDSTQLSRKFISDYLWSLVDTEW
Sequence of Ndc80 complex (Homo sapiens) (Q9HBM1 whole entry, chain 4 of 4, further chain): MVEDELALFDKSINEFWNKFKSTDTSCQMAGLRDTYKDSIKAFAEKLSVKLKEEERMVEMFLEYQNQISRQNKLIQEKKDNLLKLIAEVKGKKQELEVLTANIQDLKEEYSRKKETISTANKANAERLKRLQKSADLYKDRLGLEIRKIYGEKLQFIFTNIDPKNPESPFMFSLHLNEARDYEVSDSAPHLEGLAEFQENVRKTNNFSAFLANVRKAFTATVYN

By Kd is commonly meant the constant that tells how readily two partners part at equilibrium. On to Mis12 complex (from UniProt Q9H081), for which the Kd was 10 nM.
